Source: US20130336924A1 (ALKERMES, published 2013)

T1: IL-6Rα on HEK-Blue IL-6 cells (human, UniProt P08887 20-468)
T1 sequence (looked up): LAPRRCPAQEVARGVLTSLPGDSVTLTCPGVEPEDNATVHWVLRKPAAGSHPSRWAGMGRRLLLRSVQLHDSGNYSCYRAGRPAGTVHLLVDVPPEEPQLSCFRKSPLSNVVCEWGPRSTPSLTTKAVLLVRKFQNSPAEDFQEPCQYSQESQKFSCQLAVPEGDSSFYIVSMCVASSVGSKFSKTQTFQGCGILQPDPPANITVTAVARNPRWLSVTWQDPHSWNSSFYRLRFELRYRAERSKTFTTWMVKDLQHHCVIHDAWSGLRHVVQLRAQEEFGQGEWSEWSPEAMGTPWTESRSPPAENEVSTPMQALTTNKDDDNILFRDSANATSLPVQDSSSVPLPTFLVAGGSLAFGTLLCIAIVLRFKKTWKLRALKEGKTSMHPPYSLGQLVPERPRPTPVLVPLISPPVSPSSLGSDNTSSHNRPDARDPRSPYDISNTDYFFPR

T2: gp130 on HEK-Blue IL-6 cells (human, UniProt P40189 23-918)
T2 sequence: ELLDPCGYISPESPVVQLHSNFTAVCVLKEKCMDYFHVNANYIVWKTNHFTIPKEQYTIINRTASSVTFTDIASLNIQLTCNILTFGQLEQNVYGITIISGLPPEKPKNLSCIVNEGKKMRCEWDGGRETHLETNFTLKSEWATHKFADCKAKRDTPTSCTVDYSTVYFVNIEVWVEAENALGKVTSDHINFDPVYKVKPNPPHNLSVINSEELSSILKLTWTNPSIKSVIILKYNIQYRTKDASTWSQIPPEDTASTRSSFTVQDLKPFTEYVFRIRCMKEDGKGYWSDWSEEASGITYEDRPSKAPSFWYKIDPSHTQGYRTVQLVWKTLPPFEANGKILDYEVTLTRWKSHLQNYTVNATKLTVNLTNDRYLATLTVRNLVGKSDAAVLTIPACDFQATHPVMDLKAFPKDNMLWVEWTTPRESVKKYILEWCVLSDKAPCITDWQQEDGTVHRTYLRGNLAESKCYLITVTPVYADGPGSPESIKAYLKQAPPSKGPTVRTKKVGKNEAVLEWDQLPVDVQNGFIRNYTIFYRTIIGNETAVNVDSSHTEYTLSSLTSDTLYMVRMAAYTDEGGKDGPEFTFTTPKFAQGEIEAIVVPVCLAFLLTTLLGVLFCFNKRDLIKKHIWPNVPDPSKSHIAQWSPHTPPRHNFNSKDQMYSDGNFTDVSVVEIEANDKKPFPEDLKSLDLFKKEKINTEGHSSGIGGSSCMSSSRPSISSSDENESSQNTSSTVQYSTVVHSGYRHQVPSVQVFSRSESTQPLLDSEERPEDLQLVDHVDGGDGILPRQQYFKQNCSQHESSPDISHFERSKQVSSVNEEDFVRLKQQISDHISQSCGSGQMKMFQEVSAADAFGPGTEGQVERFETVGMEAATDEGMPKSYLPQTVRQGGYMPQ


Experiments:
[1] = target: T1, IL-6Rα on HEK-Blue IL-6 cells; test: cell-based or functional assay
[2] = target: T2, gp130 on HEK-Blue IL-6 cells; test: cell-based or functional assay

| EC50, IL-6-induced SEAP reporter in HEK-Blue IL-6 cells (agonist activity) [1] | EC50, IL-6-induced SEAP reporter in HEK-Blue IL-6 cells (agonist activity) [2] | Molecule |
| --- | --- | --- |
| 1 pM |  | IL-6 (from UniProt P05231 30-212) (ligand) |
| ~0.6 pM | ~0.6 pM | RDB1503 (ligand) QNQWLQDMTTHLILRSFKEFLQSSLRALRQMSGGSGGGSSERIDKQIRYILDGISALRKETCNKSNMCESSKEALAENNLNLPKMAEKDGCFQSGFNEETCLVKIITGLLEFEVYLEYLQNRFESSEEQARAVQMSTKVLIQFLQKKAKNLDAITTPDPTTNASLLTKLQ |
